Experimental data as given in the supplement of paper PMC7877785.
± gives the uncertainty stated by the source.

Assay: self-splicing fitness, log relative to wild type (ln ratio); higher = more splicing; Tetrahymena group I intron in knt gene, E. coli kanamycin selection, DiMSum; sequences stand for … in CUCUCU…GGAGGGAAAAGUUAUCAGGCAUGCACCUGGUAGCUAGUCUUUAAACCAAUAGAUUGCAUCGGUUUAAAAGGCAAGACCGUCAAAUUGCGGGAAAGGGGUCAACAGCCGUUCAGUACCAAGUCUCAGGGGAAACUUUGAGAUGGCCUUGCAAAGGGUAUGGUAAUAAGCUGACGGACAUGGUCCUAACCACGCAGCCAAGUCCUAAGUCAACAGAUCUUCUGUUGAUAUGGAUGCAGUUCACAGACUAAAUGUCGGUCGGGGAAGAUGUAUUCUUCUCAUAAGAUAUAGUCGGACCUCUCCUUAAUGGGAGCUAGCGGAUGAAGUGAUGCAACACUGGAGCCGCUGGGAACUAAUUUGUAUGCGAAAGUAUAUUGAUUAGUUUUGGAGUACUCGUGGUCG
Outline: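 Pooled colonies went to amplicon sequencing on an Illumina HiSeq 2500 after six replicate transformations. The plates were LB agar with 100 μg/mL carbenicillin, 50 μM IPTG and 0.2% rhamnose, with or without 25 μg/mL kanamycin, incubated overnight at 37°C or 30°C. The E. coli BL21(DE3) library had all eight P1ex-region intron nucleotides randomised, the intron placed in the knt kanamycin-resistance gene on pET-22b(+). DiMSum fitness is the error-weighted combination of replicate fold changes, kanamycin against none, normalised to wild type.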

| Sequence | self-splicing fitness (ln) (30 °C) | self-splicing fitness (ln) (37 °C) |
| --- | --- | --- |
| ACCAAGCAAUAUUACGGAGG | -1.63 ± 0.12 | -1.8 ± 0.29 |
| UGAGAGCAAUAUUACGAAGA | -1.45 ± 0.29 | -2.35 ± 0.42 |
| GAGAAGCAAUAUUACGGCGG | -1.9 ± 0.12 | -1.25 ± 0.15 |
| GCCAAGCAAUAUUACGAAAU | -3.24 ± 0.19 | -2.28 ± 0.18 |
| GCUAAGCAAUAUUACGUGCC | -3.59 ± 0.24 | -2.35 ± 0.23 |
| AGAUAGCAAUAUUACGUACC | -0.423 ± 0.13 | 0.0629 ± 0.14 |
| CGCUAGCAAUAUUACGAAAA | -1.65 ± 0.16 | -1.98 ± 0.15 |
| AUGGAGCAAUAUUACGCAGU | -3.57 ± 0.37 | -3.17 ± 0.37 |
| CCGGAGCAAUAUUACGCGCA | -2.85 ± 0.21 | -2.29 ± 0.22 |
| CAAGAGCAAUAUUACGCUCA | -2.63 ± 0.17 | -1.08 ± 0.2 |
| ACUAAGCAAUAUUACGCCCA | -0.779 ± 0.11 | -0.482 ± 0.13 |
| GUCCAGCAAUAUUACGGUCC | -3.66 ± 0.35 | -2.68 ± 0.29 |
| GUAUAGCAAUAUUACGCUGA | -1.91 ± 0.2 | -1.81 ± 0.17 |
| CGGCAGCAAUAUUACGAACA | -0.789 ± 0.096 | -0.204 ± 0.12 |
| GUCAAGCAAUAUUACGUUGU | -3.69 ± 0.13 | -2.76 ± 0.13 |
| GCACAGCAAUAUUACGCACG | -2.06 ± 0.11 | -0.889 ± 0.1 |
| AGCGAGCAAUAUUACGAAGC | -3.45 ± 0.43 | -2.17 ± 0.25 |
| CGUCAGCAAUAUUACGCAGG | -3.85 ± 0.3 | -1.69 ± 0.18 |
| UCACAGCAAUAUUACGCGUC | -3.18 ± 0.31 | -1.55 ± 0.16 |
| UGGAAGCAAUAUUACGGACU | -0.345 ± 0.11 | 0.284 ± 0.12 |
| AACGAGCAAUAUUACGGGUU | -2.17 ± 0.18 | -2.05 ± 0.22 |
| CCACAGCAAUAUUACGAAAA | -3.8 ± 0.27 | -2.58 ± 0.22 |
| CGGCAGCAAUAUUACGAAGU | -3.35 ± 0.28 | -0.302 ± 0.2 |
| UGAAAGCAAUAUUACGUAAU | -3.71 ± 0.14 | -0.793 ± 0.11 |

| Sequence | self-splicing fitness (ln) (30 °C) | self-splicing fitness (ln) (37 °C) |
| --- | --- | --- |
| AUCCAGCAAUAUUACGCGAC | -2.56 ± 0.14 | -1.86 ± 0.18 |
| GAUGAGCAAUAUUACGAGGU | -2.66 ± 0.32 | -1.99 ± 0.33 |
| CACUAGCAAUAUUACGUUGA | -3.56 ± 0.2 | -2.24 ± 0.16 |
| GUUCAGCAAUAUUACGAUAA | -0.196 ± 0.084 | 0.169 ± 0.097 |
| CUGAAGCAAUAUUACGCCAA | -3.31 ± 0.41 | – |
| CAUCAGCAAUAUUACGGCUC | -1.91 ± 0.1 | -1.1 ± 0.12 |
| CCGCAGCAAUAUUACGGGGA | -3.59 ± 0.15 | -2.35 ± 0.15 |
| GCCGAGCAAUAUUACGUACA | -2.85 ± 0.18 | -1.85 ± 0.17 |
| UGAAAGCAAUAUUACGACUU | -0.765 ± 0.12 | 0.423 ± 0.15 |
| AGGAAGCAAUAUUACGUGGA | -3.05 ± 0.19 | -1.16 ± 0.13 |
| ACGCAGCAAUAUUACGAUAC | -2.56 ± 0.2 | -1.87 ± 0.19 |
| CGGGAGCAAUAUUACGAUAU | -3.65 ± 0.35 | – |
| AAAAAGCAAUAUUACGCACC | -1.16 ± 0.14 | -0.602 ± 0.16 |
| GCGUAGCAAUAUUACGGUGC | -3.73 ± 0.32 | -2.95 ± 0.47 |
| CUCAAGCAAUAUUACGACAG | -1.19 ± 0.062 | -0.407 ± 0.082 |
| UCCAAGCAAUAUUACGCGUA | -0.121 ± 0.056 | 0.286 ± 0.06 |
| UACUAGCAAUAUUACGAUAA | -1.05 ± 0.085 | -0.513 ± 0.093 |
| AGCUAGCAAUAUUACGGCAG | -1.19 ± 0.1 | -1.08 ± 0.12 |
| AGUUAGCAAUAUUACGAAAU | -2.58 ± 0.13 | -1.62 ± 0.13 |
| CGAUAGCAAUAUUACGCCAA | -2.66 ± 0.25 | -1.87 ± 0.15 |
| UCCCAGCAAUAUUACGCUUG | -3.31 ± 0.15 | -2.4 ± 0.19 |
| ACCUAGCAAUAUUACGAGCG | -1.06 ± 0.085 | -0.509 ± 0.097 |
| CGUCAGCAAUAUUACGCUCG | -2.69 ± 0.18 | -1.63 ± 0.15 |
| AGGAAGCAAUAUUACGCACA | -0.546 ± 0.13 | 0.104 ± 0.19 |
